Literature values in patent US11807856B2, “Recombinant Pichia pastoris strain and method for producing active pediocin PA-1” (VIET NAM NATIONAL UNIVERSITY HO CHI MINH CITY, priority 2019, dated 2023).
Where two headings read alike, the source gives them in different places. Ends that are not written are not given here.

Tests used:
[1] = for activity after heat treatment: 100° C. for 60 minutes (1 hour); for antimicrobial activities after heat treatment: 121° C.
[2] = pH 2-8

## native pediocin PA-1: class IIa bacteriocin, 4.6 kDa peptide with 44 amino acids, produced by Pediococcus acidilactici PAC1.0 (KYYGNGVTCGKHSCSVDWGKATTCIINNGAMAWATGGHQGNHKC; ends and bridges not checked; cysteine pairing not given here; UniProt P29430 19-62, looked up)
[1]; listed as prior-art pediocin PA-1
  activity after heat treatment: stable
[1]; produced by Pediococcus acidilactici PAC1.0
  activity after heat treatment: remain its full activities
[1]; 20 minutes treatment, listed as prior-art pediocin PA-1
  antimicrobial activities after heat treatment: lost all activity
[1]; 20 minutes treatment, produced by Pediococcus acidilactici PAC1.0
  antimicrobial activities after heat treatment: completely disappeared
[1]; after 15 minutes
  antimicrobial activities after heat treatment: gradually reduced
[2]
  time stable at pH levels of 2-8: at least 2 hours
